Literature values as cited in article PMC4480918.

Assays:
Experiment in all cases: NMR
His80 = His80 (UniProt position 121, KELYGHTLVWH); details: free enzyme (not the 2FCb glycosyl-enzyme intermediate)
His92 = details: redox state not stated
His61 = details: redox state not stated

Substance	pKa (His80)	pKa (His92)	pKa (His61)
Catalytic domain of beta-(1,4)-glycosidase Cex (CexCD) (Cellulomonas fimi)	7.9		
Plastocyanin (A.v. Pc) (Anabaena variabilis)		5.1	7.1
